Molecular target: recombinant human CD16A (48R/158F) expressed on the surface of CHO cells (human) (UniProt P08637)
Experiment: flow cytometry, CHO-huCD16A cells, apparent KD; SD 62.5

B1: 2scDb-AFc-3 (protein)
chain 1: EVQLQQSGPELVKPGASVKMSCKASGYTFTDYVINWGKQRSGQGLEWIGEIYPGSGTNYYNEKFKAKATLTADKSSNIAYMQLSSLTSEDSAVYFCARRGRYGLYAMDYWGQGTSVTVSSGGSGGSGGSDIVMTQSPATLSLSPGERATLSCRSSKSLQNVNGNTYLYWFQQKPGQSPQLLIYRMSNLNSGVPDRFSGSGSGTEFTLTISSLEPEDFAVYYCMQHLEYPITFGAGTKLEIKGGSGGSGGSGGSGGSGGSGGSEVQLVESGGGLVKPGGSLKLSCAASGYTFTSYVMHWVRQAPGKGLEWIGYINPYNDGTKYNEKFQGRVTISSDKSISTAYMELSSLRSEDTAMYYCARGTYYYGTRVFDYWGQGTLVTVSSGGSGGSGGSDIQMTQTTSSLSASLGDRVTISCRASQDISNYLNWYQQKPDGTVKLLIYYTSRLHSGVPSRFSGSGSGTDYSLTINNLEQEDIATYFCQQGNTRPWTFGGGTKLEIKDKTHTCPPCPAPEFEGGPSVFLFPPKPKDTLMISRTPEVTCVVVAVSHEDPEVKFNWYVDGVEVHNAKTKPREEQYGSTYRVVSVLTVLHQDWLNGKEYKCKVSNKALPAPIEKTISKAKGQPREPQVYTLPPSREEMTKNQVSLWCLVKGFYPSDIAVEWESNGQPENNYKTTPPVLDSDGSFFLYSKLTVDKSRWQQGNVFSCSVMHEALHNHYTQKSLSLSPG
chain 2: EVQLVQSGAEVKKPGASVKVSCKASGYTFTNYYMQWVRQAPGQCLEWMGIINPSGGVTSYAQKFQGRVTMTRDTSTSTVYMELSSLRSEDTAVYYCARGSAYYYDFADYWGQGTLVTVSSGGSGGSGGSDIVMTQSPATLSLSPGERATLSCRSSKSLQNVNGNTYLYWFQQKPGQSPQLLIYRMSNLNSGVPDRFSGSGSGTEFTLTISSLEPEDFAVYYCMQHLEYPITFGAGTKLEIKGGSGGSGGSGGSGGSGGSGGSEVQLVESGGGLVKPGGSLKLSCAASGYTFTSYVMHWVRQAPGKGLEWIGYINPYNDGTKYNEKFQGRVTISSDKSISTAYMELSSLRSEDTAMYYCARGTYYYGTRVFDYWGQGTLVTVSSGGSGGSGGSSYELTQPLSVSVALGQTARITCGGNNIGSKSVHWYQQKPGQAPVLVIYQDKKRPSGIPERFSGSNSGNTATLTISRAQAGDEADYYCQVWDDYIVLFGCGTKLTVLDKTHTCPPCPAPEFEGGPSVFLFPPKPKDTLMISRTPEVTCVVVAVSHEDPEVKFNWYVDGVEVHNAKTKPREEQYGSTYRVVSVLTVLHQDWLNGKEYKCKVSNKALPAPIEKTISKAKGQPREPQVYTLPPSREEMTKNQVSLSCAVKGFYPSDIAVEWESNGQPENNYKTTPPVLDSDGSFFLVSKLTVDKSRWQQGNVFSCSVMHEALHNHYTQKSLSLSPG
Q: How did the Kd turn out when B1 was run?
A: 528 nM

— patent publication US20230365709A1
